B1: Frizzled-8 (Mus musculus), Q61091 (parent)
chain: MEWGYLLEVTSLLAALAVLQRSSGAAAASAKELACQEITVPLCKGIGYNYTYMPNQFNHDTQDEAGLEVHQFWPLVEIQCSPDLKFFLCSMYTPICLEDYKKPLPPCRSVCERAKAGCAPLMRQYGFAWPDRMRCDRLPEQGNPDTLCMDYNRTDLTTAAPSPPRRLPPPPPPGEQPPSGSGHSRPPGARPPHRGGSSRGSGDAAAAPPSRGGKARPPGGGAAPCEPGCQCRAPMVSVSSERHPLYNRVKTGQIANCALPCHNPFFSQDERAFTVFWIGLWSVLCFVSTFATVSTFLIDMERFKYPERPIIFLSACYLFVSVGYLVRLVAGHEKVACSGGAPGAGGAGGAGGAAAAGAGAAGAGASSPGARGEYEELGAVEQHVRYETTGPALCTVVFLLVYFFGMASSIWWVILSLTWFLAAGMKWGNEAIAGYSQYFHLAAWLVPSVKSIAVLALSSVDGDPVAGICYVGNQSLDNLRGFVLAPLVIYLFIGTMFLLAGFVSLFRIRSVIKQQGGPTKTHKLEKLMIRLGLFTVLYTVPAAVVVACLFYEQHNRPRWEATHNCPCLRDLQPDQARRPDYAVFMLKYFMCLVVGITSGVWVWSGKTLESWRALCTRCCWASKGAAVGAGAGGSGPGGSGPGPGGGGGHGGGGGSLYSDVSTGLTWRSGTASSVSYPKQMPLSQV

Variants of: B1
Conditions: with gopc_mouse Gopc

effect of a mutation on the interaction | Variant
disrupting interaction | V685A
